# Measured values published in patent US5039791A, “Peptide fragments of tissue plasminogen activator” (Monsanto Company, priority 1989, dated 1991).
# Where no end group is shown, it is not given here.
# Target: T1, fibrin (Homo sapiens, UniProt P02671+P02675+P02679)
# T1 construct: purchased Kabi Vitrum
# T1 sequence (P02671 20-644 isoform P02671-2 limits assumed): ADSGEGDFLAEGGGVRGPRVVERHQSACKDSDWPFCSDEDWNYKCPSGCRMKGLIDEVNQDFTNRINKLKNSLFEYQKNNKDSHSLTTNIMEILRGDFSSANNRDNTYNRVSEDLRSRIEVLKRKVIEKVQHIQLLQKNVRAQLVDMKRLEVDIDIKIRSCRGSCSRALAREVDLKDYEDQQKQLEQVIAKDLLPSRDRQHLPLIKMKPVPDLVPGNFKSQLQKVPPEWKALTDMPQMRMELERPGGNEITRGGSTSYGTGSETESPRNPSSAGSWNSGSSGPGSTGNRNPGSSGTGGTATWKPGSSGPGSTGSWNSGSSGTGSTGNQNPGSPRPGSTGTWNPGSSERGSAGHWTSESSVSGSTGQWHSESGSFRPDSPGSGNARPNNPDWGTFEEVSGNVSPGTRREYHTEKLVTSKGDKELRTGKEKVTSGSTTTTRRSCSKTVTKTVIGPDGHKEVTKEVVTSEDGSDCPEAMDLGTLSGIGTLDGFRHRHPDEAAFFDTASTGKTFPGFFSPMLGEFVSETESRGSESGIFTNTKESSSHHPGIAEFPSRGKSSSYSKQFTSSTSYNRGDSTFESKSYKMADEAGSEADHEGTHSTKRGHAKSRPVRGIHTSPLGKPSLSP
# T1 sequence (P02675 45-491 limits assumed): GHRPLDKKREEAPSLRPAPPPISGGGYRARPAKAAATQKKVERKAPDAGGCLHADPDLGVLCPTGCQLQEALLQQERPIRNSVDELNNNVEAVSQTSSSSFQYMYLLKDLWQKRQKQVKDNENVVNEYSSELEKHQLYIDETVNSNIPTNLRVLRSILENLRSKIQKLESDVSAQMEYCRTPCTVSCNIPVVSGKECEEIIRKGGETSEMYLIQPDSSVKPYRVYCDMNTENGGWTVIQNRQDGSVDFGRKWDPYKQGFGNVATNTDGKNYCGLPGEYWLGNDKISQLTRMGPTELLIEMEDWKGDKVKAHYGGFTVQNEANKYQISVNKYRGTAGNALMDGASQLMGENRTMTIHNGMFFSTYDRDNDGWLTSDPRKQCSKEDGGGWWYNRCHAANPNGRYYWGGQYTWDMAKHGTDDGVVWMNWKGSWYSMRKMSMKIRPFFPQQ
# T1 sequence (P02679 27-437 isoform P02679-2 limits assumed): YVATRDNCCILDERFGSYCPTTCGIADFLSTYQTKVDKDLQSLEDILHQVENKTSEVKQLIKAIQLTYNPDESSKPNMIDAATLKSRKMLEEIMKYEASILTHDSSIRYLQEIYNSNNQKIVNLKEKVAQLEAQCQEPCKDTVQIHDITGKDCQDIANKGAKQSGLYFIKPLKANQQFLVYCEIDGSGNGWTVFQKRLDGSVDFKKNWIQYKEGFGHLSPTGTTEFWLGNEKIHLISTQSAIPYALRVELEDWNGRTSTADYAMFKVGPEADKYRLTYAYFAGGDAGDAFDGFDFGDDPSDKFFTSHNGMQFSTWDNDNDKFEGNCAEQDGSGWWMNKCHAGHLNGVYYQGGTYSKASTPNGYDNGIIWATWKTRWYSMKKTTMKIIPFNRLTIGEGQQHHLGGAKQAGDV
# Assay: Fibrin binding: binding of tPA to fibrin, tPA antigen in supernatant by ELISA
# Settings: 15 μg/ml peptide; 200 ng/ml single chain melanoma tPA, 200 μg/ml human fibrinogen; no peptide = 48
# Experimental: Binding of tPA to fibrin was measured using the conventional method of Rijken et al., J. Biol. Chem. 257, 2920-2925 (1982). This method involves mixing thrombin with a solution containing tPA and fibrinogen, centrifuging the resulting clot and measuring the concentration of tPA antigen in the supernatant. In a final volume of 200 μl, the following were combined: 200 ng/ml single chain melanoma tPA, 200 μg/ml human fibrinogen, 15 μg/ml tPA peptide, 1.1 mg/ml bovine serum albumin, 0.55 mg/ml bovine gamma globulin and 10 mM ε-amino caproic acid in PBSAT. Controls omitted fibrinogen, peptide or both. Mixtures were clotted by the addition of 1 unit/ml bovine thrombin, incubated one hour at room temperature and centrifuged. tPA antigen in the supernatant was measured by conventional ELISA and the percentage bound calculated by difference using the antigen level of a control mixture with no fibrinogen as 0% bound. […] An ELISA assay kit for tPA and PAI-1 was purchased from American Diagnostica Inc. and assays were performed according to printed protocols supplied by the manufacturer with the kit except that a single lot of melanoma tPA from American Diagnostica Inc. (product 111, lot 47-01) was used as the antigen standard throughout this work and 5.0 mg/ml of BSA and 2.5 mg/ml of bovine gamma globulin were included in ELISA buffers.
row,Substance,% Bound (binding of tPA to fibrin) [%]
1,"LRSNRVEYCWCNSGRAQCHSVPVKS-amide (LRSNRVEYCWCNSGRAQCHSVPVKS-NH2; cysteine pairing not given here) [Peptide 146, 25 amino acid synthetic peptide amide fragment of native human tPA]",54
2,WNSSALAQKPYSGRRPDAIRLGLGN [Peptide 155],54
3,YSGRRPDAIRLGLGNHNYCRNPDRD-NH2 [Peptide 156],52
4,"LYFSDFVCQCPEGFAGKCCEIDTRA [Peptide 150, 25 amino acid synthetic peptide fragment of native human tPA]",52
5,SPSQEIHARFRRGARSYQVICRDEK [Peptide 142],58
6,"CNSGRAQCHSVPVKSCSEPRCFNGG-amide (CNSGRAQCHSVPVKSCSEPRCFNGG-NH2; cysteine pairing not given here) [Peptide 147, 25 amino acid synthetic peptide amide fragment of native human tPA]",55
7,GNSDCYFGNGSAYRGTHSLTESGAS-NH2 [Peptide 161],57
8,RRGARSYQVICRDEKTQMIYQQHQS [Peptide 143],57
9,"QESSVVRTVCLPPADLQLPDWTECE-amide [Peptide 182, 25 amino acid synthetic peptide amide fragment of native human tPA]",52
10,ERLKEAHVRLYPSSRCTSQHLLNRT-NH2 [Peptide 186],50
11,LLNRTVTDNMLCAGDTRSGGPQANL-NH2 [Peptide 188],52
12,"LCAGDTRSGGPQANLHDACQGDSGG-amide [Peptide 189, 25 amino acid synthetic peptide amide fragment of native human tPA]",50
13,"LKNRRLTWEYCDVPSCSTCGLRQYS [Peptide 168, 25 amino acid synthetic peptide fragment of native human tPA]",54
14,"QQHQSWLRPVLRSNRVEYCWCNSGR-amide (QQHQSWLRPVLRSNRVEYCWCNSGR-NH2; cysteine pairing not given here) [Peptide 145, 25 amino acid synthetic peptide amide fragment of native human tPA]",56
15,"YPSSRCTSQHLLNRTVTDNMLCAGD-amide [Peptide 187, 25 amino acid synthetic peptide amide fragment of native human tPA]",51
16,"DGDAKPWCHVLKNRRLTWEYCDVPS-amide (DGDAKPWCHVLKNRRLTWEYCDVPS-NH2; cysteine pairing not given here) [Peptide 167, 25 amino acid synthetic peptide amide fragment of native human tPA]",50
17,"CDVPSCSTCGLRQYSQPQFRIKGGL-amide (CDVPSCSTCGLRQYSQPQFRIKGGL-NH2; cysteine pairing not given here) [Peptide 169, 25 amino acid synthetic peptide amide fragment of native human tPA]",55
18,"PEGFAGKCCEIDTRATCYEDQGISY-amide (PEGFAGKCCEIDTRATCYEDQGISY-NH2; cysteine pairing not given here) [Peptide 151, 25 amino acid synthetic peptide amide fragment of native human tPA]",53
19,"EFCSTPACSEGNSDCYFGNGSAYRG [Peptide 160, 25 amino acid synthetic peptide fragment of native human tPA]",56
20,TAESGAECTNWNSSALAQKPYSGRR-NH2 [Peptide 154],56
21,SMILIGKVYTAQNPSAQALGLGKHN-NH2 [Peptide 164],53
22,"QLKSDSSRCAQESSVVRTVCLPPAD-amide (QLKSDSSRCAQESSVVRTVCLPPAD-NH2; cysteine pairing not given here) [Peptide 181, 25 amino acid synthetic peptide amide fragment of native human tPA]",49
23,"YVFKAGKYSSEFCSTPACSEGNSDC-amide (YVFKAGKYSSEFCSTPACSEGNSDC-NH2; cysteine pairing not given here) [Peptide 159, 25 amino acid synthetic peptide amide fragment of native human tPA]",54
24,ERFPPHHLTVILGRTYRVVPGEEEQ-NH2 [Peptide 176],53
